In US20220380445A1 (Ablynx, published 2022) one finds Kd, koff and kon data, which are given here for two molecules.

For this assay, the target named is T1, human serum albumin (human, UniProt P02768 25-609).
T1 construct: Amine-coupled to the chip (EDC/NHS); also called HSA
In words: ProteOn SPR; Nanobody on immobilized human serum albumin; Langmuir simultaneous ka/kd fit.

T1 sequence (P02768 25-609 limits assumed): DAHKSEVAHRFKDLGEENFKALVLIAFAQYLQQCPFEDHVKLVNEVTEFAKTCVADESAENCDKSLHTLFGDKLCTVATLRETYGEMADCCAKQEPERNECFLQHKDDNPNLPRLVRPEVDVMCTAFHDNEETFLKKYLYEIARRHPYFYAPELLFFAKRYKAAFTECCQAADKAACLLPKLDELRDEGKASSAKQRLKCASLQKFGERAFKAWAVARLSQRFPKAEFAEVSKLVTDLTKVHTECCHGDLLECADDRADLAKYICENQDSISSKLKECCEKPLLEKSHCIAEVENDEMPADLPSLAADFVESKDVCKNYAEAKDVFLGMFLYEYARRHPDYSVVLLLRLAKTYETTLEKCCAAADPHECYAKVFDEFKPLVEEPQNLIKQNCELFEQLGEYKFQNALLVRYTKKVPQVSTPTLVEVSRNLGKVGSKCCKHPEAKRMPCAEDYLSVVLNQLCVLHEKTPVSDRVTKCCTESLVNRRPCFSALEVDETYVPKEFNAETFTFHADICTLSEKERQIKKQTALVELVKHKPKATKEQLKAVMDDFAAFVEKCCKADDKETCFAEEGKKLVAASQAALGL
Description: PBS/Tween (phosphate buffered saline, pH7.4, 0.005% Tween20) was used as running buffer and the experiments were performed at 25° C. […] After immobilization, surfaces were deactivated with ethanolamine HCl (flow rate 30 μl/min). Nanobodies were injected for 2 minutes at 45 μl/min over the HSA surface to render a Nanobody capture level of approximately 200 RU. […] After each cycle (i.e. before a new Nanobody capture and blood sample injection step) the HSA surfaces were regenerated with a 2 minute injection of HCl (100 mM) at 45 μl/min. Sensorgram processing and data analysis was performed with ProteOn Manager 3.1.0 (Bio-Rad Laboratories, Inc.).
Also, for the serum albumin binders tested, a kinetic analysis was performed of the binding interaction with the immobilized serum albumin (Langmuir, simultaneous ka/kd model).

B1: Reference A+L11V+V89L+R102D+C-terminal alanine, N-terminal HIS6 tag (VHH)
VHH: EVQLVESGGGVVQPGGSLRLSCAASGFTFRSFGMSWVRQAPGKGPEWVSSISGSGSDTLYADSVKGRFTISRDNSKNTLYLQMNSLRPEDTALYYCTIGGSLSDSSQGTLVTVSS
Consider B1, for which binding was put at a Kd of 82 nM, the koff stood at 0.0051 s⁻¹ and the on-rate (kon) turned out to be 62000 M⁻¹ s⁻¹.

B2: Reference A+L11V+V89L+S101H+C-terminal alanine, N-terminal HIS6 tag (VHH)
VHH: EVQLVESGGGVVQPGGSLRLSCAASGFTFRSFGMSWVRQAPGKGPEWVSSISGSGSDTLYADSVKGRFTISRDNSKNTLYLQMNSLRPEDTALYYCTIGGSLHRSSQGTLVTVSS
Consider B2, for which the affinity, expressed as Kd, was 24 nM; the koff came out at 0.0026 s⁻¹; the kon was 110000 M⁻¹ s⁻¹.
